Earlier results, collected in patent publication US20250205347A1, “METHODS FOR TREATING INFLAMMATORY CONDITIONS OF THE EYE WITH AN IGF-1R LIGAND CONJUGATED TO A DISEASE-MODIFYING AGENT” (Lirum Therapeutics, Inc., priority 2022, published 2025).

What was measured:
[1] = biological target: IGF-1R (Homo sapiens, UniProt P08069); details: relative to IGF-1 / IGF-2; Hakuno et al. 2018
[2] = system: IGFBPs; details: known in the art (U.S. Pat. No. 4,876,242; Francis et al. 1992)

Chain of IGF-1R (P08069 31-736 limits assumed, species assumed): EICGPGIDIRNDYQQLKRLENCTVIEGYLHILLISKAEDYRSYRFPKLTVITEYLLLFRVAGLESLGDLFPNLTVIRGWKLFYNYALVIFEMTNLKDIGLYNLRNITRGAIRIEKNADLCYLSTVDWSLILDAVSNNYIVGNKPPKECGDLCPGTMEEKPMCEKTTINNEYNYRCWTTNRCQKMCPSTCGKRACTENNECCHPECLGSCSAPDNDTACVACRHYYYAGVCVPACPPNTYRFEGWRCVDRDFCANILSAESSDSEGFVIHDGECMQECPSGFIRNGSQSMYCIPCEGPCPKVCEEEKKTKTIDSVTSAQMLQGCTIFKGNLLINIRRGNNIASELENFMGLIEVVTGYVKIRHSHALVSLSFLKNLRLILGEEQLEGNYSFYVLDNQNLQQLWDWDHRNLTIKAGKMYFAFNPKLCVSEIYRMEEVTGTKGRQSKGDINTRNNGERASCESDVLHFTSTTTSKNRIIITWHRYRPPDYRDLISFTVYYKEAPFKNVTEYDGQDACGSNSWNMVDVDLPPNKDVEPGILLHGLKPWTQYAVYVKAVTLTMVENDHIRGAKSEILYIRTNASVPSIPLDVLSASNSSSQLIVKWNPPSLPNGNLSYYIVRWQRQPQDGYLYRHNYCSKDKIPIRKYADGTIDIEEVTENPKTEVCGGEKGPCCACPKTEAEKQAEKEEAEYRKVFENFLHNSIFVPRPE
Chain of IGF-1R (P08069 741-1367 partner limits assumed, species assumed): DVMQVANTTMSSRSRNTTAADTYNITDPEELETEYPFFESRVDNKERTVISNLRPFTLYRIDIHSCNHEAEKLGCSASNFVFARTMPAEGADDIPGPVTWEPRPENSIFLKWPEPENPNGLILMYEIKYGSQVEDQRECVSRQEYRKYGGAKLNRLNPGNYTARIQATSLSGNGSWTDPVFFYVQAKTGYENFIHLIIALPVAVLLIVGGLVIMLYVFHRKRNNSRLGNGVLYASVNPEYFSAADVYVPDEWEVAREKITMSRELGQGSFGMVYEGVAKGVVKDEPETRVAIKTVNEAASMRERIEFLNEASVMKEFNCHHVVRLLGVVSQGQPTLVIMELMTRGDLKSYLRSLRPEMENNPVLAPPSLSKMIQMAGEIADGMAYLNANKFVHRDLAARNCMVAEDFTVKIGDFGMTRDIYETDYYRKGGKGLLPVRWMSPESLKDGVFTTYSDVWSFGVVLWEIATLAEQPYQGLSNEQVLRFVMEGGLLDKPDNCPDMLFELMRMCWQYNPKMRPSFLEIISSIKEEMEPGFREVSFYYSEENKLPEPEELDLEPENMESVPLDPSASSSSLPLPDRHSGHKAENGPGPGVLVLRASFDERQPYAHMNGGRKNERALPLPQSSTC

Molecule | binding affinity for IGFBPs as compared to wildtype IGF-1 [2] | affinity of IGF-1R for the ligand, fold lower [1]
insulin: native IGF-1R ligand; mature human insulin, chain A SEQ ID NO:10 and chain B SEQ ID NO:11 | – | 50-to 100 fold
R3-IGF-1: IGF-1 variant (SEQ ID NO:6): glutamic acid in position 3 of human IGF-1 substituted by arginine | reduced binding affinity for IGFBPs | –

Second part, led by results:

binding affinity for IGFBPs as compared to wildtype IGF-1 [2] | Molecule | affinity of IGF-1R for the ligand, fold lower [1]
reduced binding affinity for IGFBPs | des(1-3) IGF-1: IGF-1 variant (SEQ ID NO:7) lacking the first three amino acids of human IGF-1 | –
reduced binding affinity for IGFBPs | IGF132: IGF-1 variant (SEQ ID NO:4): first 17 amino acids of insulin B chain replace first 16 amino acids of human IGF-1 (protein) FVNQHLCGSHLVEALYLVCGDRGFYFNKPTGYGSSSRRAPQTGIVDECCFRSCDLRRLEMYCAPLKPAKSA | –
